{"source": "patent US8629107B2", "about": "“Genes and proteins associated with angiogenesis and uses thereof” (National Jewish Health, priority 2005, dated 2014)", "key": {"[1]": {"tested_on": "vessel formation and infiltration into Matrigel plugs", "assay": "Matrigel plug implantation assay", "type": "in vivo, C57BL/6 mice", "description": "The effect of MAGP-2 on vessel formation and infiltration into Matrigel plugs implanted into genetically normal mice was determined as described (Albig et al, 2006). Briefly, phenol red-free Matrigel (BD biosciences, Bedford, Mass.) was mixed with PBS (diluent), bFGF (50 or 300 ng/ml; R&D Systems, Minneapolis, Minn.), or recombinant MAGP-2 (1 μg/ml) together with bFGF (50 ng/ml), and the resulting mixtures were injected twice subcutaneously in the ventral groin area (400 μl/injection) of C57BL/6 mice. The mice were sacrificed 10 days post-implantation and the Matrigel plugs were dissected, fixed overnight in 10% formalin, and sectioned in the National Jewish Histology Laboratory. Afterward, Masson's trichrome staining was performed to visualize infiltrating vessels, which were quantified under a light microscope by determining the average number of vessels present in 5 random fields (200× magnification). Only those fields that contained at least one vessel in the area underlying the skin were tallied. Two mice were used per experimental condition and this experiment was performed three times in its entirety. All animal studies were performed according to protocol procedures approved by the Animal Care and Use Committee at National Jewish Medical and Research Center.\nThe inventors tested this hypothesis by utilizing the Matrigel plug implantation assay, which monitors the ability of various angiogenic agents to alter vessel formation and infiltration into Matrigel plugs implanted subcutaneously into normal mice. […] MAGP-2 purity was monitored by coomassie staining, and by immunoblotting with anti-FLAG M2 monoclonal antibodies (FIG. 2A; right panel). rMAGP-2 (1 μg/ml) stimulated angiogenic sprouting of quiescent MB114 cell monolayers (FIG. 2A; left panel). […] Afterward, the Matrigel plugs were fixed, sectioned, and stained with Masson's trichrome to visualize infiltrating blood vessels (FIG. 2B; right panels; arrows denote blood vessels), which were quantified by manual counting under a light microscope. […]"}, "MB114 cells [2]": {"tested_on": "MB114 cells", "assay": "cell proliferation, [3H]thymidine incorporation assay", "type": "cell-based, murine", "description": "(§1) The effect putative angiogenic agents had on MB114 cell activities were determined as follows: (i) cell proliferation using a [^3H]thymidine incorporation assay as described (Albig et al, 2006; Albig and Schiemann, 2004; Albig and Schiemann, 2005); (ii) cell invasion through Matrigel matrices using a modified Boyden-chamber assay as described (Albig et al, 2006; Albig and Schiemann, 2004; Albig and Schiemann, 2005); (iii) p38 MAPK phosphorylation using immunoblot analyses as described (Albig et al, 2006; Albig and Schiemann, 2004; Albig and Schiemann, 2005); (iv) angiogenic sprouting in rat tail collagen matrices as described (Albig et al, 2006; Albig and Schiemann, 2004); and (v) Hes1- and SBE-driven luciferase reporter gene assays as described (Albig et al, 2006; Albig and Schiemann, 2004; Albig and Schiemann, 2005).\n(§2) FIG. 1A show results from an experiment in which serum-starved MB114 cells, stably expressing either GFP or various putative angiogenic agents, were stimulated in the absence or presence of either bFGF (50 ng/ml) or EGF (10 ng/ml) for 24 h at 37° C. Differences in MB114 cell DNA synthesis was determined by measuring [^3H]thymidine incorporation into cellular DNA. […] In this experiment, invasion of MB114 cells expressing either GFP or various putative angiogenic agents through synthetic basement membranes was determined over 48 h using a modified Boyden-chamber assay."}, "MB114 cells [3]": {"tested_on": "MB114 cells", "assay": "angiogenic sprouting in rat tail collagen matrices", "type": "cell-based, murine", "conditions": "MB114 cells stably expressing the transgene vs GFP; 10% FBS, 5 days", "description": "as §1\nFinally, it was determined whether expression of these putative angiogenic factors could effect the angiogenic sprouting of quiescent MB114 cells monolayers. MB114 cells expressing either GFP or various putative angiogenic agents were grown to confluency, and subsequently were overlaid with rat tail collagen matrices. Angiogenic sprouting by quiescent EC monolayers was stimulated by inclusion of 10% FBS and allowed to proceed for 5 days. The quantity of invading angiogenic sprouts was determined by manual counting under a light microscope.\nBased on the findings described in the Examples above, the inventors hypothesized that MAGP-2 promotes angiogenesis by antagonizing Notch1 signaling. To test this hypothesis, it was first determined whether inhibiting Notch signaling in MB114 cells would enhance their angiogenic sprouting. In doing so, MB114 cells were transiently transfected with the Hes1-luciferase reporter gene (and pCMV-β-gal cDNA as control), and subsequently were treated overnight with or without the highly specific gamma-secretase inhibitor, DAPT (Sastre et al, 2001), which inhibits S3-mediated cleavage of Notch1 and, consequently, NICD-mediated induction of Hes1 expression. Afterward, luciferase and β-gal activities were determined. […] In this experiment, quiescent MB114 cell monolayers were overlaid with rat tail collagen matrices, and were induced to form angiogenic sprouts by addition of 10% FBS supplemented with or without DAPT (10 μM). Five days later the number of invading angiogenic spouts were quantified by manual counting on a light microscope. Based on these findings, the inventors conclude that Notch activation functions in mediating angiostasis in MB114 cells. […] Collectively, these findings indicate that Notch1 signaling antagonizes angiogenic sprouting in MB114 cells, and that downregulation of Notch1 signaling components is necessary for angiogenesis activation in MB114 cells.\nHaving shown that Notch1 signaling mediates angiostasis in MB114 cells, the inventors next asked whether MAGP-2 promotes angiogenesis in MB114 cells via its ability to antagonize Notch signaling. To do so, MAGP-2-expressing MB114 cells were engineered to constitutively express active Notch1 NICD fragment in an attempt to overcome the block of Notch processing mediated by MAGP-2. More particularly, GFP-, MAGP-2-, and MAGP-2/N1ICD-expressing MB114 cells were transiently transfected with pHes1-luciferase and pCMV-β-gal cDNAs. Luciferase and β-gal activities were determined 48 h post-transfection. As the inventors observed previously, MAGP-2 expression reduced Hes1-luciferase activity in MB114 cells (FIG. 5C), a reaction that was bypassed by co-expression of NICD in these cells (FIG. 5C). […] In this experiment, quiescent monolayers of GFP-, MAGP-2-, and MAGP-2/N1ICD-expressing MB114 cells were overlaid with rat tail collagen matrices and incubated in the absence or presence of 10% FBS for 5 days. Afterward, the number of invading angiogenic sprouts were determined by manual counting under a light microscope."}, "MB114 cells [4]": {"tested_on": "MB114 cells", "assay": "cell invasion through Matrigel matrices, modified Boyden-chamber assay", "type": "cell-based, murine", "conditions": "MB114 cells stably expressing the transgene vs GFP; 48 h", "description": "as §1, §2"}, "MCA102 fibrosarcomas": {"tested_on": "MCA102 fibrosarcomas", "assay": "MCA102 fibrosarcomas produced in mice", "type": "in vivo"}, "p38 MAPK": {"tested_on": "p38 MAPK", "assay": "p38 MAPK phosphorylation by immunoblot analyses", "type": "cell-based, murine", "conditions": "serum-starved MB114 cells expressing the transgene; bFGF 50 ng/ml or EGF 10 ng/ml, 0-15 min", "description": "as §1\nThe inventors' previous studies have associated stimulation of p38 MAPK activity with angiogenesis of MB114 cells and, conversely, inhibition of p38 MAPK activity with angiostasis of MB114 cells (Albig et al, 2006; Albig and Schiemann, 2004; Albig and Schiemann, 2005). […] The phosphorylation status of p38 MAPK was determined by immunoblotting whole cell lysates with phospho-specific p38 MAPK antibodies (p38-P). Differences in protein loading were monitored by reprobing stripped membranes with anti-p38 MAPK polyclonal antibodies (p38)."}}, "data": [{"molecule": "bFGF: growth factor (R&D Systems) mixed into Matrigel at 50 or 300 ng/ml [reference compound]", "values": [{"measurement": "vascularization of implanted Matrigel plugs", "setting": "[1]; 50 or 300 ng/ml in Matrigel vs diluent, subcutaneous, C57BL/6 mice, day 10", "result": "dose-dependently stimulated"}]}, {"molecule": "SMOC-2: secretory protein stably expressed in MB114 cells by retroviral transduction (protein, UniProt Q8CD91 22-447, looked up) SPARC-related modular …: QKFSALTFLRVDQDKDRDCSLDCPSSPQKPLCASDGRTFLSRCEFQRAKCKDPQLEIAHRGNCKDVSRCVAERKYTQEQARKEFQQVFIPECNDDGTYSQVQCHSYTGYCWCVTPNGRPISGTAVAHKTPRCPGSINEKVPQREGAGKADDAAAPALETQPQGDEEDIASRYPTLWTEQVKSRQNKTNKNSASSCDQEHQSALEEAKQPKNDNVVIPECAHGGLYKPVQCHPSTGYCWCVLVDTGRPIPGTSTRYEQPKCDNTARAHPAKARDLYKNRPLQGCPGAKKHEFLTSVLDALSTDMVHAVSDPSSSSGRLSEPDPSHTLEERVVHWYFKLLDKNSSGDIGKKEIKPFKRFLRKKSKPKKCVKKFVEYCDMNNDKSITVQELMGCLGVTREEGKANTRKRHTPRGNAESSSSNRQPRKQG", "values": [{"measurement": "proliferative response of MB114 cells to bFGF ([3H]thymidine incorporation into cellular DNA)", "setting": "MB114 cells [2]; serum-starved MB114 cells stably expressing the transgene vs GFP, bFGF 50 ng/ml, 24 h, 37° C.", "result": "significantly enhanced"}, {"measurement": "angiogenic sprouting of quiescent MB114 cell monolayers", "setting": "MB114 cells [3]", "result": "significantly increased"}, {"measurement": "MB114 cell invasion through synthetic basement membranes", "setting": "MB114 cells [4]", "result": "significantly induced"}]}, {"molecule": "lumican: SLRP family secreted proteoglycan stably expressed in MB114 cells by retroviral transduction (protein, UniProt P51885 19-338, looked up) Lumican: QYYDYDIPLFMYGQISPNCAPECNCPHSYPTAMYCDDLKLKSVPMVPPGIKYLYLRNNQIDHIDEKAFENVTDLQWLILDHNLLENSKIKGKVFSKLKQLKKLHINYNNLTESVGPLPKSLQDLQLTNNKISKLGSFDGLVNLTFIYLQHNQLKEDAVSASLKGLKSLEYLDLSFNQMSKLPAGLPTSLLTLYLDNNKISNIPDEYFKRFTGLQYLRLSHNELADSGVPGNSFNISSLLELDLSYNKLKSIPTVNENLENYYLEVNELEKFDVKSFCKILGPLSYSKIKHLRLDGNPLTQSSLPPDMYECLRVANEITVN", "values": [{"measurement": "growth of MCA102 fibrosarcomas produced in mice", "setting": "MCA102 fibrosarcomas; unpublished observation", "result": "decreases"}, {"measurement": "blood vessel density of MCA102 fibrosarcomas produced in mice", "setting": "MCA102 fibrosarcomas; unpublished observations", "result": "decreases"}, {"measurement": "MB114 cell proliferation", "setting": "MB114 cells [2]; transgene expression in MB114 cells, data not shown", "result": "inhibit"}, {"measurement": "development and infiltration of vessels in Matrigel plugs implanted into mice", "setting": "[1]; unpublished observations", "result": "antagonizes"}, {"measurement": "p38 MAPK phosphorylation", "setting": "p38 MAPK", "result": "significantly inhibited"}, {"measurement": "angiogenic sprouting of quiescent MB114 cell monolayers", "setting": "MB114 cells [3]", "result": "significantly decreased"}]}]}
